One block for each molecule: values may come before it.
What was measured:
Format in all cases: in vitro ADME, human
UGT1A isoforms = details: across the UGT1A isoforms used (Tab.S1)
[1] = substrate: O=c1c(O)c(-c2ccc(O)cc2)oc2cc(O)cc(O)c12; assay: UGT1A9 glucuronidation kinetics of flavonols; details: other: UGT1A9, pH 6.5
[2] = substrate: O=c1c(O)c(-c2ccc(O)cc2)oc2cc(O)ccc12; assay: UGT1A9 glucuronidation kinetics of flavonols; details: other: UGT1A9, pH 6.5
[3] = substrate: O=c1c(O)c(-c2ccccc2)oc2cc(O)ccc12; assay: UGT1A9 glucuronidation kinetics of flavonols; details: other: UGT1A9, pH 6.5
[4] = substrate: O=c1c(O)c(-c2ccc(O)cc2)oc2cc(O)cc(O)c12; assay: UGT1A10 glucuronidation kinetics of flavonols; details: other: UGT1A10, pH 6.5
[5] = substrate: O=c1c(O)c(-c2ccccc2)oc2cc(O)cc(O)c12; assay: UGT1A10 glucuronidation kinetics of flavonols; details: other: UGT1A10, pH 6.5
[6] = substrate: O=c1c(O)c(-c2ccccc2)oc2cc(O)ccc12; assay: UGT1A10 glucuronidation kinetics of flavonols; details: other: UGT1A10, pH 6.5
[7] = substrate: O=c1c(O)c(-c2ccc(O)cc2)oc2cc(O)cc(O)c12; assay: UGT1A8 glucuronidation kinetics of flavonols; details: other: UGT1A8, pH 6.5
[8] = substrate: O=c1c(O)c(-c2ccccc2)oc2cc(O)cc(O)c12; assay: UGT1A8 glucuronidation kinetics of flavonols; details: other: UGT1A8, pH 6.5
[9] = substrate: O=c1c(O)c(-c2ccccc2)oc2cc(O)ccc12; assay: UGT1A8 glucuronidation kinetics of flavonols; details: other: UGT1A8, pH 6.5
[10] = substrate: O=c1c(O)c(-c2ccc(O)cc2)oc2cc(O)cc(O)c12; assay: UGT1A7 glucuronidation kinetics of flavonols; details: other: UGT1A7, pH 6.5
[11] = substrate: O=c1c(O)c(-c2ccccc2)oc2cc(O)cc(O)c12; assay: UGT1A7 glucuronidation kinetics of flavonols; details: other: UGT1A7, pH 6.5
[12] = substrate: O=c1c(O)c(-c2ccccc2)oc2cc(O)ccc12; assay: UGT1A7 glucuronidation kinetics of flavonols; details: other: UGT1A7, pH 6.5

Molecule: O=c1cc(-c2ccc(O)cc2)oc2cccc(O)c12 [5,4’DHF, 5,4'-dihydroxyflavone]
glucuronidation rate (UGT1A isoforms): ≤ 0.9 nmol/mg/min

Molecule: COc1cc(O)c2c(=O)cc(-c3ccccc3)oc2c1 [5H7MF, 5-hydroxy-7-methoxyflavone]
glucuronidation rate (UGT1A isoforms): ≤ 0.9 nmol/mg/min

Molecule: O=c1cc(-c2ccccc2)oc2cccc(O)c12 [5HF, 5-hydroxyflavone]
glucuronidation rate (UGT1A isoforms): ≤ 0.9 nmol/mg/min

B1: UGT1A9 (Homo sapiens) (protein)
chain: GKLLVVPMDGSHWFTMRSVVEKLILRGHEVVVVMPEVSWQLGRSLNCTVKTYSTSYTLEDLDREFKAFAHAQWKAQVRSIYSLLMGSYNDIFDLFFSNCRSLFKDKKLVEYLKESSFDAVFLDPFDNCGLIVAKYFSLPSVVFARGILCHYLEEGAQCPAPLSYVPRILLGFSDAMTFKERVRNHIMHLEEHLLCHRFFKNALEIASEILQTPVTEYDLYSHTSIWLLRTDFVLDYPKPVMPNMIFIGGINCHQGKPLPMEFEAYINASGEHGIVVFSLGSMVSEIPEKKAMAIADALGKIPQTVLWRYTGTRPSNLANNTILVKWLPQNDLLGHPMTRAFITHAGSHGVYESICNGVPMVMMPLFGDQMDNAKRMETKGAGVTLNVLEMTSEDLENALKAVINDKSYKENIMRLSSLHKDRPVEPLDLAVFWVEFVMRHKGAPHLRPAAHDLTWYQYHSLDVIGFLLAVVLTVAFITFKCCAYGYRKCLGKKGRVKKAHKSKTH
Km ([1]; formation of 3-O-glucuronide): 0.32 ± 0.03 µM
Vmax ([1]; formation of 3-O-glucuronide): 1.92 ± 0.03 nmol/mg/min
Vmax/Km ([1]; formation of 3-O-glucuronide): 6000 µL/min/mg
Km ([1]; formation of 7-O-glucuronide): 3.87 ± 0.59 µM
Vmax ([1]; formation of 7-O-glucuronide): 0.87 ± 0.05 nmol/mg/min
Vmax/Km ([1]; formation of 7-O-glucuronide): 220 µL/min/mg
Km ([2]; formation of 3-O-glucuronide): 0.36 ± 0.03 µM
Vmax ([2]; formation of 3-O-glucuronide): 2.62 ± 0.05 nmol/mg/min
Vmax/Km ([2]; formation of 3-O-glucuronide): 7280 µL/min/mg
Km ([2]; formation of 7-O-glucuronide): 2.67 ± 0.56 µM
Vmax ([2]; formation of 7-O-glucuronide): 1.15 ± 0.08 nmol/mg/min
Vmax/Km ([2]; formation of 7-O-glucuronide): 430 µL/min/mg
Km ([3]; formation of 3-O-glucuronide): 0.22 ± 0.04 µM
Vmax ([3]; formation of 3-O-glucuronide): 4.60 ± 0.28 nmol/mg/min
Vmax/Km ([3]; formation of 3-O-glucuronide): 20910 µL/min/mg
Km ([3]; formation of 7-O-glucuronide): 1.50 ± 0.26 µM
Vmax ([3]; formation of 7-O-glucuronide): 2.04 ± 0.09 nmol/mg/min
Vmax/Km ([3]; formation of 7-O-glucuronide): 1360 µL/min/mg

B2: UGT1A10 (Homo sapiens) (protein)
chain: GKLLVVPMDGSHWFTMQSVVEKLILRGHEVVVVMPEVSWQLERSLNCTVKTYSTSYTLEDQNREFMVFAHAQWKAQAQSIFSLLMSSSSGFLDLFFSHCRSLFNDRKLVEYLKESSFDAVFLDPFDTCGLIVAKYFSLPSVVFTRGIFCHHLEEGAQCPAPLSYVPNDLLGFSDAMTFKERVWNHIVHLEDHLFCQYLFRNALEIASEILQTPVTAYDLYSHTSIWLLRTDFVLDYPKPVMPNMIFIGGINCHQGKPLPMEFEAYINASGEHGIVVFSLGSMVSEIPEKKAMAIADALGKIPQTVLWRYTGTRPSNLANNTILVKWLPQNDLLGHPMTRAFITHAGSHGVYESICNGVPMVMMPLFGDQMDNAKRMETKGAGVTLNVLEMTSEDLENALKAVINDKSYKENIMRLSSLHKDRPVEPLDLAVFWVEFVMRHKGAPHLRPAAHDLTWYQYHSLDVIGFLLAVVLTVAFITFKCCAYGYRKCLGKKGRVKKAHKSKTH
Km ([4]; formation of 3-O-glucuronide): 2.44 ± 0.55 µM
Vmax ([4]; formation of 3-O-glucuronide): 1.46 ± 0.16 nmol/mg/min
Vmax/Km ([4]; formation of 3-O-glucuronide): 600 µL/min/mg
Km ([4]; formation of 7-O-glucuronide): 3.34 ± 1.21 µM
Vmax ([4]; formation of 7-O-glucuronide): 1.10 ± 0.20 nmol/mg/min
Vmax/Km ([4]; formation of 7-O-glucuronide): 330 µL/min/mg
Km ([5]; formation of 3-O-glucuronide): 4.49 ± 0.61 µM
Vmax ([5]; formation of 3-O-glucuronide): 2.01 ± 0.14 nmol/mg/min
Vmax/Km ([5]; formation of 3-O-glucuronide): 450 µL/min/mg
Km ([5]; formation of 7-O-glucuronide): 3.96 ± 0.58 µM
Vmax ([5]; formation of 7-O-glucuronide): 0.77 ± 0.04 nmol/mg/min
Vmax/Km ([5]; formation of 7-O-glucuronide): 190 µL/min/mg
Km ([6]; formation of 3-O-glucuronide): 6.66 ± 0.66 µM
Vmax ([6]; formation of 3-O-glucuronide): 0.19 ± 0.01 nmol/mg/min
Vmax/Km ([6]; formation of 3-O-glucuronide): 30 µL/min/mg
Km ([6]; formation of 7-O-glucuronide): 8.74 ± 1.37 µM
Vmax ([6]; formation of 7-O-glucuronide): 0.26 ± 0.02 nmol/mg/min
Vmax/Km ([6]; formation of 7-O-glucuronide): 30 µL/min/mg

B3: UGT1A8 (Homo sapiens) (protein)
chain: GKLLVVPMDGSHWFTMQSVVEKLILRGHEVVVVMPEVSWQLGKSLNCTVKTYSTSYTLEDLDREFMDFADAQWKAQVRSLFSLFLSSSNGFFNLFFSHCRSLFNDRKLVEYLKESSFDAVFLDPFDACGLIVAKYFSLPSVVFARGIACHYLEEGAQCPAPLSYVPRILLGFSDAMTFKERVRNHIMHLEEHLFCQYFSKNALEIASEILQTPVTAYDLYSHTSIWLLRTDFVLDYPKPVMPNMIFIGGINCHQGKPLPMEFEAYINASGEHGIVVFSLGSMVSEIPEKKAMAIADALGKIPQTVLWRYTGTRPSNLANNTILVKWLPQNDLLGHPMTRAFITHAGSHGVYESICNGVPMVMMPLFGDQMDNAKRMETKGAGVTLNVLEMTSEDLENALKAVINDKSYKENIMRLSSLHKDRPVEPLDLAVFWVEFVMRHKGAPHLRPAAHDLTWYQYHSLDVIGFLLAVVLTVAFITFKCCAYGYRKCLGKKGRVKKAHKSKTH
Km ([7]; formation of 3-O-glucuronide): 2.39 ± 0.47 µM
Vmax ([7]; formation of 3-O-glucuronide): 0.74 ± 0.04 nmol/mg/min
Vmax/Km ([7]; formation of 3-O-glucuronide): 310 µL/min/mg
Km ([7]; formation of 7-O-glucuronide): 6.77 ± 1.78 µM
Vmax ([7]; formation of 7-O-glucuronide): 1.01 ± 0.09 nmol/mg/min
Vmax/Km ([7]; formation of 7-O-glucuronide): 150 µL/min/mg
Km ([8]; formation of 3-O-glucuronide): 6.44 ± 1.28 µM
Vmax ([8]; formation of 3-O-glucuronide): 3.89 ± 0.47 nmol/mg/min
Vmax/Km ([8]; formation of 3-O-glucuronide): 600 µL/min/mg
Km ([8]; formation of 7-O-glucuronide): 4.88 ± 1.14 µM
Vmax ([8]; formation of 7-O-glucuronide): 0.79 ± 0.57 nmol/mg/min
Vmax/Km ([8]; formation of 7-O-glucuronide): 160 µL/min/mg
Km ([9]; formation of 3-O-glucuronide): 8.68 ± 1.21 µM
Vmax ([9]; formation of 3-O-glucuronide): 0.76 ± 0.04 nmol/mg/min
Vmax/Km ([9]; formation of 3-O-glucuronide): 90 µL/min/mg
Km ([9]; formation of 7-O-glucuronide): 27.32 ± 7.50 µM
Vmax ([9]; formation of 7-O-glucuronide): 0.65 ± 0.10 nmol/mg/min
Vmax/Km ([9]; formation of 7-O-glucuronide): 20 µL/min/mg

B4: UGT1A7 (Homo sapiens) (protein)
chain: GKLLVVPMDGSHWFTMQSVVEKLILRGHEVVVVMPEVSWQLGRSLNCTVKTYSTSYTLEDQDREFMVFADARWTAPLRSAFSLLTSSSNGIFDLFFSNCRSLFNDRKLVEYLKESCFDAVFLDPFDACGLIVAKYFSLPSVVFARGIFCHYLEEGAQCPAPLSYVPRLLLGFSDAMTFKERVWNHIMHLEEHLFCPYFFKNVLEIASEILQTPVTAYDLYSHTSIWLLRTDFVLEYPKPVMPNMIFIGGINCHQGKPVPMEFEAYINASGEHGIVVFSLGSMVSEIPEKKAMAIADALGKIPQTVLWRYTGTRPSNLANNTILVKWLPQNDLLGHPMTRAFITHAGSHGVYESICNGVPMVMMPLFGDQMDNAKRMETKGAGVTLNVLEMTSEDLENALKAVINDKSYKENIMRLSSLHKDRPVEPLDLAVFWVEFVMRHKGAPHLRPAAHDLTWYQYHSLDVIGFLLAVVLTVAFITFKCCAYGYRKCLGKKGRVKKAHKSKTH
Km ([10]; formation of 3-O-glucuronide): 1.46 ± 0.32 µM
Vmax ([10]; formation of 3-O-glucuronide): 0.77 ± 0.04 nmol/mg/min
Vmax/Km ([10]; formation of 3-O-glucuronide): 530 µL/min/mg
Km ([10]; formation of 7-O-glucuronide): 11.56 ± 2.91 µM
Vmax ([10]; formation of 7-O-glucuronide): 1.10 ± 0.11 nmol/mg/min
Vmax/Km ([10]; formation of 7-O-glucuronide): 100 µL/min/mg
Km ([11]; formation of 3-O-glucuronide): 0.82 ± 0.08 µM
Vmax ([11]; formation of 3-O-glucuronide): 3.35 ± 0.11 nmol/mg/min
Km ([11]; formation of 7-O-glucuronide): 21.43 ± 6.09 µM
Vmax ([11]; formation of 7-O-glucuronide): 2.46 ± 0.34 nmol/mg/min
Vmax/Km ([11]; formation of 7-O-glucuronide): 110 µL/min/mg
Km ([12]; formation of 3-O-glucuronide): 1.61 ± 0.14 µM
Vmax ([12]; formation of 3-O-glucuronide): 2.04 ± 0.07 nmol/mg/min
Vmax/Km ([12]; formation of 3-O-glucuronide): 1270 µL/min/mg
Km ([12]; formation of 7-O-glucuronide): 23.17 ± 6.96 µM
Vmax ([12]; formation of 7-O-glucuronide): 0.44 ± 0.07 nmol/mg/min
Vmax/Km ([12]; formation of 7-O-glucuronide): 20 µL/min/mg

Now from value to molecule:

glucuronidation rate (UGT1A isoforms): ≤ 0.9 nmol/mg/min
Molecule: COc1ccc2c(=O)cc(-c3ccc(O)cc3)oc2c1 [4’H7MF, 4'-hydroxy-7-methoxyflavone]

glucuronidation rate (UGT1A isoforms): ≤ 0.9 nmol/mg/min
Molecule: COc1cc(O)c2c(=O)cc(-c3ccc(O)cc3)oc2c1 [5,4’DH7MF, 5,4'-dihydroxy-7-methoxyflavone]

glucuronidation rate (UGT1A isoforms): ≤ 0.9 nmol/mg/min
Molecule: O=c1cc(-c2ccc(O)cc2)oc2ccccc12 [4’HF, 4'-hydroxyflavone]

glucuronidation rate (UGT1A isoforms): ≤ 0.9 nmol/mg/min
Molecule: COc1cccc2oc(-c3ccc(O)cc3)cc(=O)c12 [4’H5MF, 4'-hydroxy-5-methoxyflavone]

glucuronidation rate (UGT1A isoforms): ≤ 0.9 nmol/mg/min
Molecule: COc1ccc2oc(-c3ccc(O)cc3)cc(=O)c2c1 [4’H6MF, 4'-hydroxy-6-methoxyflavone]

— paper PMC3426363 (Pharmaceutical research, 2011)
